Common to all, as to assay: NMR
Details in all cases: 286 K (pH measured at 21 °C), none, MilliQ water with 3.2 mM DSS-d6 and 0.13 mM EDTA, pH adjusted with NaOH/HCl, random coil

Series [1] addresses Glu3 (position 3, ---GGEGG---).
The target of series [2] is Glu17 (UniProt position 68, …).
The target in series [3] is Glu21 (UniProt position 72, …).
The target in series [4] is Glu24 (UniProt position 75, …).
Where [5] appears, read: 50 mM CaCl2, total ionic strength not stated, 50 mM CaCl2 (5-fold excess over 10 mM peptide).
Where [6] appears, read: not stated (no added salt; varies with NaOH/HCl additions), no Ca2+, 10 mM peptide.

By pKa is commonly meant the pH at which an ionisable group is half protonated. Regarding GGEGG [Model peptide 1, Ac-GGEGG-NH2 (synthetic)], the pKa worked out at 4.30 in series [1] (setting [5]) and 4.34 in series [1] (setting [6]).

Turning to PLEPRREVSELN [Osteocalcin P15-N26 peptide, uncarboxylated (Glu) form (peptide 5) (Homo sapiens; C23S)], the pKa in series [2] (setting [5]) turned out to be 4.25; in series [2] (setting [6]), 4.26; in series [3] (setting [5]), 4.28; in series [3] (setting [6]), 4.33; in series [4] (setting [5]), 4.20; in series [4] (setting [6]), 4.19.

For the origin of these results see article PMC12312033.
